For one substance, Km and kcat results are on record in paper PMC7773637, “Short-Chain Dehydrogenase NcmD Is Responsible for the C-10 Oxidation of Nocamycin F in Nocamycin Biosynthesis” (Frontiers in Microbiology, 2020).

The data set concerns CC1=CC(O)C2OC1(C(C)C(C)O)OC(C(C)/C=C(C)/C=C/C(O)=C1C(=O)CNC1=O)C2C. The data set is described as follows: HPLC product quantification, initial rates, Michaelis-Menten fit. It counts as biochemical, Saccharothrix syringae. Particulars: 2 mM NAD^+, pH 8.5, 45°C, 0.2 μM NcmD.

As to NcmD (Saccharothrix syringae), the Michaelis constant (Km) – broadly, the concentration of substrate that gives half-maximal velocity – was found to be 131 ± 13 µM; the kcat (commonly the number of substrate molecules converted per active site and unit of time at saturation) stood at 1.08 ± 0.083 s⁻¹.
